This note sets out measurements from article PMC13016609, “UV irradiation alters TFAM binding specificity and compaction of DNA”.

What all share (conditions): protein: recombinant; label: 5' 6-FAM on strand 1; blunt
The target of data set [1] is T1, TFAM (no MTS) (Homo sapiens, UniProt Q00059 43-246).
T1 sequence: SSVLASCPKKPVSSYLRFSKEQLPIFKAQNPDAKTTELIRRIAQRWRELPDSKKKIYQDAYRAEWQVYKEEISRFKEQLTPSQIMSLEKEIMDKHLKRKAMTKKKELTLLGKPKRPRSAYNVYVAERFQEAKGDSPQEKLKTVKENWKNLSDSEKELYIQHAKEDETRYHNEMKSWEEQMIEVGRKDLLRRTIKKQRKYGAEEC
The experiment in a line: fluorescence anisotropy; Hill n 2.46±0.23; FP: 25 mM HEPES, 10 mM Mg(OAc)2, 25 mM NaOAc, 75 mM KOAc, pH 7.5, 1 nM DNA, TFAM 0-15 nM diluted on ice (read temperature not stated); AFM oligos: on ice, 2 min. In general terms: Polarisation of emitted light reports the rotation of a fluorescent probe.

In data set [2] the target is T1, TFAM (no MTS). Nature of the data set: fluorescence anisotropy; +UVC; Hill n 2.33±0.10; FP: 25 mM HEPES, 10 mM Mg(OAc)2, 25 mM NaOAc, 75 mM KOAc, pH 7.5, 1 nM DNA, TFAM 0-15 nM diluted on ice (read temperature not stated); AFM oligos: on ice, 2 min.
Data set [3] concerns the target T1, TFAM (no MTS). The experiment in a line: fluorescence anisotropy; Hill n 2.07±0.07; FP: 25 mM HEPES, 10 mM Mg(OAc)2, 25 mM NaOAc, 75 mM KOAc, pH 7.5, 1 nM DNA, TFAM 0-15 nM diluted on ice (read temperature not stated); AFM oligos: on ice, 2 min.
For data set [4], the target named is T1, TFAM (no MTS). The experiment in a line: fluorescence anisotropy; +UVC; Hill n 2.12±0.28; FP: 25 mM HEPES, 10 mM Mg(OAc)2, 25 mM NaOAc, 75 mM KOAc, pH 7.5, 1 nM DNA, TFAM 0-15 nM diluted on ice (read temperature not stated); AFM oligos: on ice, 2 min.
Data set [5] concerns the target T1, TFAM (no MTS). Nature of the data set: fluorescence anisotropy; Hill n 2.63±0.22; FP: 25 mM HEPES, 10 mM Mg(OAc)2, 25 mM NaOAc, 75 mM KOAc, pH 7.5, 1 nM DNA, TFAM 0-15 nM diluted on ice (read temperature not stated); AFM oligos: on ice, 2 min.
Data set [6] has as its target T1, TFAM (no MTS). Nature of the data set: fluorescence anisotropy; +UVC; Hill n 2.19±0.06; FP: 25 mM HEPES, 10 mM Mg(OAc)2, 25 mM NaOAc, 75 mM KOAc, pH 7.5, 1 nM DNA, TFAM 0-15 nM diluted on ice (read temperature not stated); AFM oligos: on ice, 2 min.

B1: RNR2_619 (dsDNA)
DNA 1: ATTGATCCAATAACTTGACCAACGGAACAAGTT
DNA 2: AACTTGTTCCGTTGGTCAAGTTATTGGATCAAT
For orientation: Kd means the free concentration of one partner at which half of the binding sites on the other are occupied at equilibrium, for simple one-to-one binding. On to B1, for which the Kd with TFAM (no MTS) [1] stood at 4.89 ± 0.33 nM.

B2: RNR2_619 +UVC (dsDNA)
DNA 1: ATTGATCCAATAACTTGACCAACGGAACAAGTT
DNA 2: AACTTGTTCCGTTGGTCAAGTTATTGGATCAAT
modifications: UVC 1500 J/m2 photolesions (positions undefined)
As for B2, the Kd in the data set with TFAM (no MTS) [2] stood at 8.13 ± 0.39 nM.

B3: COX1_27 (dsDNA)
DNA 1: AAGACATTGGAACACTATACCTATTATTCGGCG
DNA 2: CGCCGAATAATAGGTATAGTGTTCCAATGTCTT
For B3, the Kd in the data set with TFAM (no MTS) [3] amounted to 6.09 ± 0.43 nM.

B4: COX1_27 +UVC (dsDNA)
DNA 1: AAGACATTGGAACACTATACCTATTATTCGGCG
DNA 2: CGCCGAATAATAGGTATAGTGTTCCAATGTCTT
modifications: UVC 1500 J/m2 photolesions (positions undefined)
With B4, the Kd with TFAM (no MTS) [4] amounted to 5.9 ± 0.1 nM.

B5: ND3_92 (dsDNA)
DNA 1: TTAGTAGCTATTACCTTCTTATTATTTGATCTA
DNA 2: TAGATCAAATAATAAGAAGGTAATAGCTACTAA
With B5, the Kd with TFAM (no MTS) [5] stood at 4.53 ± 0.13 nM.

B6: ND3_92 +UVC (dsDNA)
DNA 1: TTAGTAGCTATTACCTTCTTATTATTTGATCTA
DNA 2: TAGATCAAATAATAAGAAGGTAATAGCTACTAA
modifications: UVC 1500 J/m2 photolesions (positions undefined)
On to B6, for which the Kd with TFAM (no MTS) [6] was 5.54 ± 0.14 nM.
